Measurements from US20110040072A1, “MONO AND DI-SUBSTITUTED OXYCODONE COMPOUNDS AND COMPOSITIONS” (SHIRE LLC, priority 2006, published 2011).

Key:
[1] = Oral bioavailability / oral pharmacokinetics of oxycodone conjugates in rats; details: for AUC % (Oral Bioavailability): reference = 100
[2] = background statement; cited from earlier work
[3] = Intravenous bioavailability of oxycodone conjugates in rats
[4] = Intranasal bioavailability of oxycodone conjugates in rats; details: for AUC % (Intranasal Bioavailability): reference = 100
[5] = relative to OXY = 100, n = 4 animals, analysis by LC-MS

| Compound | Oral (% AUC) [1, 5] [% AUC] | also measured |
| --- | --- | --- |
| CC[C@H](C)[C@H](NC(=O)[C@H](CCC(=O)O)NC(=O)[C@@H](N)CCC(=O)O)C(=O)OC1=CC[C@@]2(O)[C@H]3Cc4ccc(OC)c5c4[C@@]2(CCN3C)[C@H]1O5 [Glu-Glu-Ile-OC] | 179 |  |
| COc1ccc2c3c1O[C@H]1C(OC(=O)[C@@H](NC(=O)CNC(=O)CN)C(C)C)=CC[C@@]4(O)[C@@H](C2)N(C)CC[C@]314 [Gly-Gly-Val-OC] | 123 |  |
| CC[C@H](C)[C@H](N)C(=O)N[C@H](C(=O)N[C@H](C(=O)OC1=CC[C@@]2(O)[C@H]3Cc4ccc(OC)c5c4[C@@]2(CCN3C)[C@H]1O5)[C@@H](C)CC)[C@@H](C)CC [Ile-Ile-Ile-OC] | 83 |  |
| COc1ccc2c3c1O[C@H]1C(OC(=O)[C@H](Cc4ccccc4)NC(=O)[C@H](CCC(=O)O)NC(=O)[C@@H](N)CCC(=O)O)=CC[C@@]4(O)[C@@H](C2)N(C)CC[C@]314 [Glu-Glu-Phe-OC] | 49 |  |
| COc1ccc2c3c1O[C@H]1C(OC(=O)[C@H](Cc4ccccc4)NC(=O)CNC(=O)CN)=CC[C@@]4(O)[C@@H](C2)N(C)CC[C@]314 [Gly-Gly-Phe-OC] | 163 |  |
| Val-Val-Phe-OC | 120 |  |
| COc1ccc2c3c1O[C@H]1C(OC(=O)[C@H](CC(C)C)NC(=O)[C@H](CCCCN)NC(=O)[C@@H](N)CCCCN)=CC[C@@]4(O)[C@@H](C2)N(C)CC[C@]314 [Lys-Lys-Leu-OC] | 46 |  |
| COc1ccc2c3c1O[C@H]1C(OC(=O)[C@@H](NC(=O)[C@H](CC(=O)O)NC(=O)[C@@H](N)CC(=O)O)C(C)C)=CC[C@@]4(O)[C@@H](C2)N(C)CC[C@]314 [Asp-Asp-Val-OC] | 40 |  |
| Phe-Phe-Ile-OC | 59 |  |
| CC[C@H](C)[C@H](NC(=O)[C@H](CCCCN)NC(=O)[C@@H](N)CCCCN)C(=O)OC1=CC[C@@]2(O)[C@H]3Cc4ccc(OC)c5c4[C@@]2(CCN3C)[C@H]1O5 [Lys-Lys-Ile-OC] | 74 |  |
| COc1ccc2c3c1O[C@H]1C(=O)CC[C@@]4(O)[C@@H](C2)N(C)CC[C@]314 [OXY, oxycodone] | 100 | Therapeutic plasma concentration [2]: 10 to 100 ng/mL; toxic plasma concentration [2]: greater than 200 ng/mL; AUC % (Oral Bioavailability) [1]: 100% |
| Pro-Pro-Ile-OC | 85 | AUC % (Oral Bioavailability) [1]: 85% |
| COc1ccc2c3c1O[C@H]1C(OC(=O)[C@H](CC(C)C)NC(=O)[C@H](CCC(=O)O)NC(=O)[C@@H](N)CCC(=O)O)=CC[C@@]4(O)[C@@H](C2)N(C)CC[C@]314 [Glu-Glu-Leu-OC] | 80 |  |
| Phe-Phe-Val-OC | 32 |  |
| COc1ccc2c3c1O[C@H]1C(OC(=O)[C@@H](NC(=O)CNC(=O)[C@@H](N)CO)C(C)C)=CC[C@@]4(OC(=O)[C@@H](NC(=O)CNC(=O)[C@@H](N)CO)C(C)C)[C@@H](C2)N(C)CC[C@]314 [(SGV)2-OC, [Ser-Gly-Val]2-OC] |  | AUC % (Oral Bioavailability) [1]: 103%; AUC % (Intravenous Bioavailability) ([3]; reference = 100): 52%; AUC % (Intranasal Bioavailability) [4]: 64% |
| COc1ccc2c3c1O[C@H]1C(OC(=O)[C@@H](NC(=O)[C@H](CC(=O)O)NC(=O)[C@@H](N)CCC(=O)O)C(C)C)=CC[C@@]4(OC(=O)[C@@H](NC(=O)[C@H](CC(=O)O)NC(=O)[C@@H](N)CCC(=O)O)C(C)C)[C@@H](C2)N(C)CC[C@]314 [(EDV)2-OC, [Glu-Asp-Val]2-OC] |  | AUC % (Oral Bioavailability) [1]: 73%; AUC % (Intranasal Bioavailability) [4]: 20% |

| Compound | Oral (% AUC) [1, 5] [% AUC] | also measured |
| --- | --- | --- |
| COc1ccc2c3c1O[C@H]1C(OC(=O)[C@@H](NC(=O)[C@H](CCCCN)NC(=O)[C@@H](N)CCCCN)C(C)C)=CC[C@@]4(O)[C@@H](C2)N(C)CC[C@]314 [Lys-Lys-Val-OC] | 108 |  |
| COc1ccc2c3c1O[C@H]1C(OC(=O)[C@@H](NC(=O)[C@H](CCC(=O)O)NC(=O)[C@@H](N)CCC(=O)O)C(C)C)=CC[C@@]4(O)[C@@H](C2)N(C)CC[C@]314 [Glu-Glu-Val-OC] | 55 |  |
| Tyr-Tyr-Phe-OC | 73 |  |
| COc1ccc2c3c1O[C@H]1C(OC(=O)[C@@H](NC(=O)[C@H](CCC(=O)O)NC(=O)[C@@H](N)C(C)C)C(C)C)=CC[C@@]4(OC(=O)[C@@H](NC(=O)[C@H](CCC(=O)O)NC(=O)[C@@H](N)C(C)C)C(C)C)[C@@H](C2)N(C)CC[C@]314 [(VEV)2-OC, [Val-Glu-Val]2-OC] |  | AUC % (Oral Bioavailability) [1]: 104%; AUC % (Intranasal Bioavailability) [4]: 39% |
| COc1ccc2c3c1O[C@H]1C(OC(=O)[C@H](Cc4ccccc4)NC(=O)[C@H](CCCCN)NC(=O)[C@@H](N)CCCCN)=CC[C@@]4(O)[C@@H](C2)N(C)CC[C@]314 [Lys-Lys-Phe-OC] | 37 |  |
| Tyr-Tyr-Pro-OC | 59 |  |
| COc1ccc2c3c1O[C@H]1C(OC(=O)[C@@H](NC(=O)[C@H](C)NC(=O)[C@H](C)N)C(C)C)=CC[C@@]4(O)[C@@H](C2)N(C)CC[C@]314 [Ala-Ala-Val-OC] | 85 |  |
| CC[C@H](C)[C@H](NC(=O)CNC(=O)CN)C(=O)OC1=CC[C@@]2(O)[C@H]3Cc4ccc(OC)c5c4[C@@]2(CCN3C)[C@H]1O5 [Gly-Gly-Ile-OC] |  | Oral (% AUC) ([1]; relative to OXY = 100, dosed at 40% higher levels than calculated, n = 4 animals, LC-MS): 224 % AUC |
| Pro-Pro-Val-OC | 152 | AUC % (Oral Bioavailability) [1]: 152% |
| COc1ccc2c3c1O[C@H]1C(OC(=O)[C@@H]4CCCN4C(=O)[C@H](CCC(=O)O)NC(=O)[C@@H](N)CCC(=O)O)=CC[C@@]4(O)[C@@H](C2)N(C)CC[C@]314 [Glu-Glu-Pro-OC] | 71 |  |
| Tyr-Tyr-Val-OC | 124 | AUC % (Oral Bioavailability) [1]: 124% |
| COc1ccc2c3c1O[C@H]1C(OC(=O)[C@H](CC(C)C)NC(=O)[C@@H]4CCCN4C(=O)[C@@H]4CCCN4)=CC[C@@]4(OC(=O)[C@H](CC(C)C)NC(=O)[C@@H]5CCCN5C(=O)[C@@H]5CCCN5)[C@@H](C2)N(C)CC[C@]314 [[PPL]2-OC, [Pro-Pro-Leu]2-OC] |  | bioavailability by the intravenous route ([3]; versus oxycodone): substantially decreased; bioavailability by the intranasal route ([4]; versus oxycodone): substantially decreased |
| Tyr-Tyr-Ile-OC | 85 |  |
| COc1ccc2c3c1O[C@H]1C(OC(=O)[C@@H](NC(=O)[C@H](CC(C)C)NC(=O)[C@@H](N)CC(C)C)C(C)C)=CC[C@@]4(O)[C@@H](C2)N(C)CC[C@]314 [Leu-Leu-Val-OC] | 81 |  |
| OC-Succcinate | 79 |  |
